Results: publication PMC9265717

Biological target: toll-like receptor 5 (TLR5) (human (endogenous in MDA-MB-468 and MDA-MB-231)) (UniProt O60602)
Sequence of UniProt O60602 (O60602 21-858): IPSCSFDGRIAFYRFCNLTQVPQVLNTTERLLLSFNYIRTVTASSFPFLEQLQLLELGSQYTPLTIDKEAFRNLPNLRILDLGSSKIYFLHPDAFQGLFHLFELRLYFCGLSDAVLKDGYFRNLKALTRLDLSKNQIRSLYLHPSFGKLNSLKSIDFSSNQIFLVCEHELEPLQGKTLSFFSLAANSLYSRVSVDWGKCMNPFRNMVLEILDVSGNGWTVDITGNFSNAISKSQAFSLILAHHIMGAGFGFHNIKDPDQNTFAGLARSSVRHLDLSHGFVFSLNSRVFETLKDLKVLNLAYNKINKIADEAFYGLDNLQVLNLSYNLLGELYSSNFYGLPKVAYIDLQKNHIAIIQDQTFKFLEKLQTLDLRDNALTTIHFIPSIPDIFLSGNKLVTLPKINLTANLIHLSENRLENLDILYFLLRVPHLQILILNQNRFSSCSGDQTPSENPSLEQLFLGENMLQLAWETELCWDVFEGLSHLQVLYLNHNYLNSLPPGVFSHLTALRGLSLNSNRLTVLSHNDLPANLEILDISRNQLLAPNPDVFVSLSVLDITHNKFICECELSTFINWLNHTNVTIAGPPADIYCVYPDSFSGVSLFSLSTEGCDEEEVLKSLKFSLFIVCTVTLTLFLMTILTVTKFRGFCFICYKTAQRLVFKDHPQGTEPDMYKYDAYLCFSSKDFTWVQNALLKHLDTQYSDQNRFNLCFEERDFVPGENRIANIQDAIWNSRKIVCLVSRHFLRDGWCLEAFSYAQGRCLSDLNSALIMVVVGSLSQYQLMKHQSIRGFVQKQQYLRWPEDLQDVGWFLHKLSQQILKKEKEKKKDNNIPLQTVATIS

percent of IL-8 release (ELISA) by MDA-MB-231 cells in response to FnEDA (5 µM) that is inhibited by a blocking antibody to TLR5: 30%
Substance: fibronectin EDA (FnEDA) domain (domain or fragment)
